Test results: patent US20240150476A1 (Chugai, published 2024)

Columns and labels:
[1] = target: T1, human CD3ed-Fc (human); experiment: phage display: panning on biotin-labeled human CD3ed-Fc and/or phage ELISA
T1 construct: Biotinylated in culture with BirA; The heterodimer fraction was purified; also called biotin-labeled protein containing human CD3 epsilon and human CD3 delta linked to a human antibody constant region; CD3 epsilon-delta heterodimer fused with the antibody constant region
T1 chain 1: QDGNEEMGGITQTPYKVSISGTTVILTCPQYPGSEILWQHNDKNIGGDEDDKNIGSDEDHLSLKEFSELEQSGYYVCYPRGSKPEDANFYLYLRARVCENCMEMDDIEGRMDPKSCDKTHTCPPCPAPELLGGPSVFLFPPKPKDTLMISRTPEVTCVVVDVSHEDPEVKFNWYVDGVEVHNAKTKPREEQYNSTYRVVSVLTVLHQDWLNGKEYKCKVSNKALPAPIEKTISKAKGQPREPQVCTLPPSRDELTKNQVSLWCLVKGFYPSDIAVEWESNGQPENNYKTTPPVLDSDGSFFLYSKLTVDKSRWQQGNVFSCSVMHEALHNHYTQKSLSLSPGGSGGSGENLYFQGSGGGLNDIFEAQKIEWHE
T1 chain 2: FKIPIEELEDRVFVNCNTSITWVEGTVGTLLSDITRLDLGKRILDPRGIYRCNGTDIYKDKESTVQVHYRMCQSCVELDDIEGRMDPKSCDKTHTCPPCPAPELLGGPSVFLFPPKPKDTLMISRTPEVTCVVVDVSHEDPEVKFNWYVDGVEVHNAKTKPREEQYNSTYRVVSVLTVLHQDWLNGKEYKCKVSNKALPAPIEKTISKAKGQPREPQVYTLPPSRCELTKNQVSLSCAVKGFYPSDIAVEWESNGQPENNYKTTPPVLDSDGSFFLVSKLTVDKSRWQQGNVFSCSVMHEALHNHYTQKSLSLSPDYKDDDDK
Experimental: Next, BSA was added to the phage library solution so as to attain a final BSA concentration of 4%. […] The magnetic beads used were NeutrAvidin coated beads (FG beads NeutrAvidin) or Streptavidin coated beads (Dynabeads MyOne Streptavidin T1).
Specifically, 100 pmol of the biotin-labeled antigen was added to the prepared phage library solution, and the phage library solution was contacted with the antigen at room temperature for 60 minutes. The magnetic beads blocked with BSA were added thereto, and the complexes of the antigen and the phages were bound to the magnetic beads at room temperature for 15 minutes. The beads were washed twice with 0.5 mL of TBST (TBS containing 0.1% Tween 20; TBS was manufactured by Takara Bio Inc.) and then further washed once with 0.5 mL of TBS. Then, 0.5 mL of 1 mg/mL trypsin was added thereto, and the beads were suspended at room temperature for 15 minutes and immediately thereafter, separated using a magnetic stand to recover a phage solution. The recovered phage solution was added to 20 mL of an E. coli line ER2738 in an exponential stage of growth (OD600: 0.4-0.5). The E. coli was cultured with mild stirring at 37° C. for 1 hour and thereby infected by the phages. […] Next, the phages were recovered from the culture solution of the inoculated E. coli to prepare a phage library solution. This cycle, called panning, was repeated twice. In the second cycle of panning, the beads were washed three times with TBST and subsequently twice with TBS. Also, 4 nmol of human Fc was added in the case of the panning against the human CD3ed-Fc.

[2] = target: T2, IL6R90-G1m/lamL (Homo sapiens (Human), UniProt P0DOY2 1-106); experiment: BLI (Octet HTX), hsIL-6R-BAP1 on streptavidin sensor, molecule as analyte, 30 C
T2 construct: IgG antibody-like molecule lacking VL

[3] = target: T3, 20A11-G1m/VK2-28-k0MT; experiment: BLI (Octet), in the same way as in Example 3
T3 construct: IgG antibody-like molecule
T3 sequence (heavy, as listed by the source, chain 1 of 2): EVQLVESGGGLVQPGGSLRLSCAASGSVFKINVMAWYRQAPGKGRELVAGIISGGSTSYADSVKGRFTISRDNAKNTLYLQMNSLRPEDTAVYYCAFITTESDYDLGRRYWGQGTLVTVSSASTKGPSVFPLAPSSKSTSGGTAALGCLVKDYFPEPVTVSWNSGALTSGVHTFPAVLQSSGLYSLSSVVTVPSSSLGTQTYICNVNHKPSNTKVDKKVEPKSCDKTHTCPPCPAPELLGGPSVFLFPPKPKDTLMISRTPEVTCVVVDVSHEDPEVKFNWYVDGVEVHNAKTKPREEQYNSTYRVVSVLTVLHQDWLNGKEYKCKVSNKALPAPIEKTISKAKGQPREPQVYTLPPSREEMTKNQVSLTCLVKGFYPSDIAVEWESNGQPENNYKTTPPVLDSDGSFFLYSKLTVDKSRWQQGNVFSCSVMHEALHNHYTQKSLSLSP
T3 sequence (light, as listed by the source, chain 2 of 2): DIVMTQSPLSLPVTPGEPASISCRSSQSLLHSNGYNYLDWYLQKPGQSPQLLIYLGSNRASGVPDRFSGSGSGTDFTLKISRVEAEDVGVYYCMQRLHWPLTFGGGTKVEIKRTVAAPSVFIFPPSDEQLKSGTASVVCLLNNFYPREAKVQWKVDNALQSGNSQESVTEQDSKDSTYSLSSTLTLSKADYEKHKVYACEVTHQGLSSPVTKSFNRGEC

[4] = target: T2, IL6R90-G1m/lamL; experiment: BLI (Octet HTX), molecule captured on Protein A biosensor, hsIL-6R as analyte, 30 C
Experimental: (§1) The hsIL-6R binding evaluation of each molecule was conducted using Octet HTX (Pall ForteBio Corp.). Specifically, each molecule was bound to Biosensor/Protein A (ProA) (Pall ForteBio Corp., 18-5013), and hsIL-6R was allowed to act thereon, followed by binding evaluation at 30° C.

[5] = target: T4, IL6R90-G1m/VK2-28-k0MT; experiment: as above
T4 construct: IgG antibody-like molecule
T4 sequence (light, as listed by the source, chain 2 of 2, other chains not shown): as the sequence (light, as listed by the source, chain 2 of 2) above
Experimental: as §1

[6] = target: T5, 20A11hu-G1m/VK2-28-k0MT (Homo sapiens (Human), UniProt P0DOX5 2-447 = IgG part); experiment: BLI (Octet), in the same way as in Example 3, 30 C or 25 C
T5 construct: IgG antibody-like molecule
T5 sequence (P0DOX5 other isoform, or with tags, fused parts or gaps, chain 1 of 2): as the sequence (heavy, as listed by the source, chain 1 of 2) above, with Y37V, R45L, L47W counted along it
T5 sequence (light, as listed by the source, chain 2 of 2): as the sequence (light, as listed by the source, chain 2 of 2) above

B1: bC3edL1R1N161H01 (VHH)
VHH: QVQLVESGGGLVQPGGSLRLSCAASGFPFDNYVMSWVRQAPGKGLEWISAISWNGGSTYYAESMKGRFTISRDNAKSTLYLQMNSLKSEDTAVYYCAKEPRVYYSGSPDYWGQGTQVTVSG
binding result [1]: binds

B2: bC3edL1R1N160H01 (VHH)
VHH: QVQLVESGGGLVQPGGSLRLSCAASGFTFNHCWMYWVRQAPGKGLEWVSVINTDGGSAYYADSVKGRFTISRDNAKNTLYLQMNSLKSEDTAVYYCARDWAPLVDYYYGMDYWGKGTLVTVSG
binding result [1]: binds

B3: bC3edL1R1N164H01 (VHH)
VHH: QVQLVESGGGLVQPGGSLRLSCAASGFTFDVYGMSWVRHSPGKGLEWVSTINWNGGSTYYAESMKGRFTISRDNAKNTVYLQMNSLKPEDTAVYYCAKFAPWDGDMEWGQGTQVTVSG
binding result [1]: binds

B4: hsIL-6R-BAP1 (receptor)
chain: LAPRRCPAQEVARGVLTSLPGDSVTLTCPGVEPEDNATVHWVLRKPAAGSHPSRWAGMGRRLLLRSVQLHDSGNYSCYRAGRPAGTVHLLVDVPPEEPQLSCFRKSPLSNVVCEWGPRSTPSLTTKAVLLVRKFQNSPAEDFQEPCQYSQESQKFSCQLAVPEGDSSFYIVSMCVASSVGSKFSKTQTFQGCGILQPDPPANITVTAVARNPRWLSVTWQDPHSWNSSFYRLRFELRYRAERSKTFTTWMVKDLQHHCVIHDAWSGLRHVVQLRAQEEFGQGEWSEWSPEAMGTPWTESRSPPAENEVSTPMQALTTNKDDDNILFRDSANATSLPVQGGGGSGLNDIFEAQKIEWHE
modifications: biotin on the C-terminal AviTag sequence (BirA)
notes: also called hsIL-6R-Avitag; biotinylated soluble human IL6R
binding result [2]: binds

B5: soluble human IL-6R (receptor)
chain: LAPRRCPAQEVARGVLTSLPGDSVTLTCPGVEPEDNATVHWVLRKPAAGSHPSRWAGMGRRLLLRSVQLHDSGNYSCYRAGRPAGTVHLLVDVPPEEPQLSCFRKSPLSNVVCEWGPRSTPSLTTKAVLLVRKFQNSPAEDFQEPCQYSQESQKFSCQLAVPEGDSSFYIVSMCVASSVGSKFSKTQTFQGCGILQPDPPANITVTAVARNPRWLSVTWQDPHSWNSSFYRLRFELRYRAERSKTFTTWMVKDLQHHCVIHDAWSGLRHVVQLRAQEEFGQGEWSEWSPEAMGTPWTESRSPPAENEVSTPMQALTTNKDDDNILFRDSANATSLPVQ
notes: Expressed in CHO cells and purified from the supernatant; also called hsIL-6R; recombinant human IL6R
binding result [3]: binds
binding result [4]: binds
binding result [5]: no binding
binding result [6]: no binding
